Measured values: PMC4666033, “A novel bifunctional GH51 exo-α-L-arabinofuranosidase/endo-xylanase from Alicyclobacillus sp. A4 with significant biomass-degrading capacity” (Biotechnology for Biofuels, 2015)

Substrate: O=[N+]([O-])c1ccc(O[C@@H]2O[C@@H](CO)[C@H](O)[C@H]2O)cc1
Test: purified protein
Format: biochemical, Alicyclobacillus sp. A4
Conditions: pH 6.0, McIlvaine buffer, 60 °C, 5 min, substrate 1-10 mM

B1: Ac-Abf51A (Alicyclobacillus sp. A4) (protein)
chain: MSKSIARMTIDPQYQLADVDPRLFGSFIEHLGRAVYGGIYEPDHPSADEMGFRQDVLELVRELQVPIVRYPGGNFVSGYRWEDGVGPLASRPAQLDLAWRSLEPNRVGVNEFVEWAKRANSEVMMAVNLGTRGIDEAKQIVEYCNHPGGSYWSDLRKSHGYEQPHGIKVWCLGNEMDGPWQIGHKTAEEYGRIAEEAAKVMKWVDPSIELVACGSSGSKMPTFPDWERIVLEHTYDHVEYISMHSYYGNRENDLATYLAQSLDMDHFIRSVIATCDYVKAKKRSKKTINISFDEWNVWFHSNEADKQVAPWQVGPPLLEDVYTFEDALVVGCLLITLLRHADRVKMACLAQLVNVIAPIMTENGGVSWKQTIYYPFLHASRYGRGKVMHCSLQSPKYDCKEFTDVPLVESVAVWNQDIAELTIFAVNRSQDGGIELECDIRGFAQASVIEHTVLVHSDLKAANTKEEPQEVIPQHAQGAKVDGGLLFAPLPKLSWNVIRLRV
notes: no signal peptide; pET-30a(+) NdeI/NotI, C-terminal His tag inferred from cloning; E. coli BL21(DE3); Ni-NTA
Km: 460 µM
kcat: 23.0 s⁻¹
